Consider 38 molecules from patent US20150232562A1 (Ablynx, published 2015).

Substitutions are numbered along the chain they refer to.

This test deals with T1, recombinant human ErbB2/Fc chimera (human, UniProt P04626 23-652).
T1 construct: bought from R&D Systems; also called rhErbB2-Fc; rhErb2-Fc; Fc part of the bought chimera not given; not described
The test can be described thus: ELISA, coated ErbB2/Fc.

B1: 15A6 (VHH)
VHH: EVQLVESGGGLVQAGGSLRLSCVTSRRPASTRTMAWYRQAPGKQRDWVATISSHGLPVYADSVKGRFTVSRDNANNTVYLQMNTLKPEDTAVYYCRDVNADYWGQGTQVTVSS
notes: C-term myc-His6 tag
For B1, the binding result is given as “binds”.

B2: 15C2 (VHH)
VHH: B1 VHH with P41Q
notes: C-term myc-His6 tag
Turning to B2, the binding result is “binds”.

B3: 17C5 (VHH)
VHH: B1 VHH with Q108P
notes: C-term myc-His6 tag
With B3, the binding result is recorded as “binds”.

B4: 27A5 (VHH)
VHH: EVQLVESGGGLVQAGGSLNLSCVASGIPFSTRTMAWYRQPPGNERDWVATIRSGAPVYADSVKGRFTVSRDNAKNTLYLQMNSLEPEDTATYYCWDVNGDIWGQGTPVTVSS
notes: C-term myc-His6 tag
In the case of B4, the binding result was “binds”.

B5: 17B6 (VHH)
VHH: EVQLVESGGGLVQPGGSLRLSCAASRIPFSTRTMAWYRQAPGKQRDWVATIGTSGPPRYADSVKGRFTVSRDNAKNTVYLQMNSLKAEDTAVYYCWDVNADYWGQGTQVTVSS
notes: C-term myc-His6 tag
As for B5, the binding result is “binds”.

B6: 15G4 (VHH)
VHH: EVQLVESGGGLVQAGGSLRLSCVASGIPFRSRTMAWYRQAPGKTRDWVATIGTHGTPLYADSVKGRFTVSRDNAKNTLYLQMNSLKPEDTAVYYCWDVNGDYWGQGTQVTVSS
notes: C-term myc-His6 tag
As for B6, the binding result is on record as “binds”.

B7: 27G5 (VHH)
VHH: EVQLVESGGGLVQPGGSLRLSCVASRIPASIRTMAWYRQTPGNQRDWLATIGSSGTPAYADSVKGRFTVSRDNAKNTVYLQMNSLKPEDTAVYYCRDVNGDYWGQGTQVTVSS
notes: C-term myc-His6 tag
For the molecule B7, the binding result is recorded as “binds”.

B8: 29E9 (VHH)
VHH: B7 VHH
notes: C-term myc-His6 tag
Consider B8, for which the binding result was “binds”.

B9: 15D8 (VHH)
VHH: B7 VHH with R19K, R26T
notes: C-term myc-His6 tag
Take B9: the binding result was “binds”.

B10: 13A9 (VHH)
VHH: B7 VHH with P14A, T40A, N43K, L48V, S53T, S54G, V63F, K75N, N76H
notes: C-term myc-His6 tag
Turning to B10, the binding result was “binds”.

B11: 14A1 (VHH)
VHH: EVQLVESGGGSVQAGGSLRLSCAASERTFSSYGMGWFRQAPGKEREFVATINWSGVTAYADSVKGRFTISRDNAKKTVYLQMNSLKPEDTAVYYCAAEPYGSGSSLMSEYDYWGHGTQVTVSS
notes: C-term myc-His6 tag
Turning to B11, the binding result is “binds”.

B12: 14A12 (VHH)
VHH: B11 VHH with E6K, S11L, M107I
notes: C-term myc-His6 tag
On to B12, for which the binding result is “binds”.

B13: 14C6 (VHH)
VHH: B11 VHH with A23V, R27G, E46A, A97T, E98D, P99T, S108N, H115Q
notes: C-term myc-His6 tag
Turning to B13, the binding result is given as “binds”.

B14: 14B11 (VHH)
VHH: B11 VHH with S11L, E26G, R27S, A40V, V92R, A96G, A97V, P99T, S108T, H115Q
notes: C-term myc-His6 tag
In the case of B14, the binding result was “binds”.

B15: 14B4 (VHH)
VHH: B11 VHH with S11L, A24V, E26S, T28A, E44D, V63I, K76E, A91G, P99T, H115Q
notes: C-term myc-His6 tag
Turning to B15, the binding result is on record as “binds”.

B16: 14A4 (VHH)
VHH: B11 VHH with G16S, R19T, A23V, R27G, E46A, T57N, V78A, P99T, S108N, H115Q
notes: C-term myc-His6 tag
On to B16, for which the binding result is given as “binds”.

B17: 14C11 (VHH)
VHH: EVQLVESGGGLVQAGGSLRLSCAVNSRTFSSYGMGWFRQAPGKEREFVATINWSGATAYADSIKGRFTISRDNAKETVYLQMNSLKPDDTGVYYCAAETYGSGSSLMSEYDYWGQGTQVTVSS
notes: C-term myc-His6 tag
Turning to B17, the binding result is reported as “binds”.

B18: 14B3 (VHH)
VHH: EVQLVESGGGLVQPGGSLTLSCVASEGTFSSYGMGWFRQAPGKERAFVATINWSGVNAYADSVKGRFTISRDNAKKTAYLQMNSLKPEDTAVYYCAAETYGSGSSLMNEYDYWGQGTQVTVSS
notes: C-term myc-His6 tag
In the case of B18, the binding result is on record as “binds”.

B19: 14B10 (VHH)
VHH: B17 VHH with A56V
notes: C-term myc-His6 tag
Regarding B19, the binding result is “binds”.

B20: 14A2 (VHH)
VHH: B11 VHH with S11L, M107I
notes: C-term myc-His6 tag
For B20, the binding result is on record as “binds”.

B21: 14C1 (VHH)
VHH: B11 VHH with E26G, R27S, E46A, A97T, P99T, S108N, H115Q
notes: C-term myc-His6 tag
Turning to B21, the binding result was “binds”.

B22: 17C3 (VHH)
VHH: EVQLVESGGGLVQAGGSLRLSCAANGLTFRRYDMGWYRQAPGQQREWVAAISGAGDINYADSVKGRFTMARDNANHTVHLQMNSLKPEDTAVYYCNANWKMLLGVENDYWGQGTQVTVSS
notes: C-term myc-His6 tag
B22: the binding result is “binds”.

B23: 13D7 (VHH)
VHH: B22 VHH
notes: C-term myc-His6 tag
On to B23, for which the binding result is recorded as “binds”.

B24: 15C8 (VHH)
VHH: EVQLVESGGGLVQAGGSLRLSCAASGIAFRIRTMAWYRQAPGKQRDWVATSDSGGTTLYADSVKGRFTVSRDNAENTVYLQMNSLKPEDTAVYYCRDVNRDYWGQGTQVTVSS
notes: C-term myc-His6 tag
B24: the binding result is given as “binds”.

B25: 13B12 (VHH)
VHH: B24 VHH with S51I, D52G, G54D, L58I, V69L, D72H
notes: C-term myc-His6 tag
Regarding B25, the binding result is “binds”.

B26: 27B5 (VHH)
VHH: B24 VHH with S21P
notes: C-term myc-His6 tag
For the molecule B26, the binding result is “binds”.

B27: 27C7 (VHH)
VHH: B24 VHH with E75D
notes: C-term myc-His6 tag
B27: the binding result is recorded as “binds”.

B28: 46D3 (VHH)
VHH: KVQLVESGGGLVQAGGSLRLSCAASGRTFTEYSMGWFRQAPGKEREFVATISWNYGYTYYSDSVKGRFTVSRDIAENTVYLQMNTLKSEDTAVYYCAAKIGWLSIRGDEYEYWGQGTQVTVSS
notes: C-term myc-His6 tag
Consider B28, for which the binding result is on record as “binds”.

B29: 13A8 (VHH)
VHH: EVQLVESGGGLVQPGGSLRLSCAASGLGIAFSRRTMAWYRQAPGKQRDWVATIAGDGSTVYADSMKGRFTISRDNAENTVYLQMNSLKPEDTAVYYCWDVNRDYWGQGTQVTVSS
notes: C-term myc-His6 tag
For the molecule B29, the binding result is “binds”.

B30: 17G5 (VHH)
VHH: EVQLVESGGGLVQPGGSLRLSCAASGIGIAFSSRTMAWYRQAPGKQRDWVATIGSGGTTNYADSVKGRFTISRDNAKNTVYLQMNSLKPEDTAVYYCRDINRDYWGQGTQVTVSS
notes: C-term myc-His6 tag
For B30, the binding result is “binds”.

B31: 17F5 (VHH)
VHH: B29 VHH with E77K, M84V, V100T, R102G
notes: C-term myc-His6 tag
On to B31, for which the binding result is reported as “binds”.

B32: 27D3 (VHH)
VHH: B29 VHH with V5M
notes: C-term myc-His6 tag
For B32, the binding result is recorded as “binds”.

B33: 15A4 (VHH)
VHH: B29 VHH with E77K, M84I
notes: C-term myc-His6 tag
Turning to B33, the binding result was “binds”.

B34: 17C2 (VHH)
VHH: EVQLVESGGGLVQPGGSLRLSCAASGFAFSSYAMSWVRQAPGKGLEWVSAVDSGGGRTDYAHSVKGRFTISRDNAKNTLYLQMSSLKPEDTALYYCTKHVSDSDYTEYDYWGQGTQVTVSS
notes: C-term myc-His6 tag
On to B34, for which the binding result is “binds”.

B35: 17F7 (VHH)
VHH: EVQLVESGGGLVQAGGSLRLSCVASGIAQSIRVMAWYRQPPGKQRDWVGTISSDGTANYADSVKGRFTISRDNAKKTMYLQMNSLKPDDTAVYYCRDVNRDYWGQGTQVTVSS
notes: C-term myc-His6 tag
As to B35, the binding result is given as “binds”.

B36: 15D12 (VHH)
VHH: EVQLVESGGGLVQAGESLRLSCATSGITFKRYVMGWYRQGPGKQRELVATVNDGGTTSYADSVKGRFAISRDNAKNTAYLQMNSLKAEDTAVYYCNAVWKLPRFVDNDYWGQGTQVTVSS
notes: C-term myc-His6 tag
On to B36, for which the binding result is “binds”.

B37: 13A4 (VHH)
VHH: EVQLVESGGGLVQAGGSLRLSCVASKMTFMRYTMGWYRQAPGKQRDLVASIDSSGGTNYADSVKGRFTISRDNAKNTVYLEMNSLKPEDTGVYYCNGRWDIVGAIWWGQGTQVTVSS
notes: C-term myc-His6 tag
As for B37, the binding result is “binds”.

B38: 27H4 (VHH)
VHH: B37 VHH with S53A
notes: C-term myc-His6 tag
Turning to B38, the binding result is “binds”.
